# Patent US20050203281A1, “Production of recombinant fragments of muscle acetylcholine receptor and their use for ex vivo immunoadsorption of anti-ch receptor antibodies from myasthenic patients” (priority 2002, published 2005)
# Entries after “also recorded” stand apart in the source; their conditions may differ. Where two headings read alike, the source gives them in different places.
# B1: alpha1-210 (protein)
# chain: SEHETRLVAKLFKDYSSVVRPVEDHRQVVEVTVGLQLIQLINVDEVNQIVTTNVRLKQQWVDYNLKWNPDDYGGVKKIHIPSEKIWRPDLVLYNNADGDFAIVKFTKVLLQYTGHITWTPPAIFKSYCEIIVTHFPFDEQNCSMKLGTWTYDGSVVAINPESDQPDLSNFMESGEWVIKESRGWKHSVTY
# modifications: glycosylated at residue 141
# B2: alpha 1-210: extracellular domain of human alpha AChR with ApoE leader and six histidines, expressed in HEK293 cells by SFV vector (protein)
# chain: SEHETRLVAKLFKDYSSVVRPVEDHRQVVEVTVGLQLIQLINVDEVNQIVTTNVRLKQQWVDYNLKWNPDDYGGVKKIHIPSEKIWRPDLVLYNNADGDFAIVKFTKVLLQYTGHITWTPPAIFKSYCEIIVTHFPFDEQNCSMKLGTWTYDGSVVAINPESDQPDLSNFMESGEWVIKESRGWKHSVTY
# modifications: glycosylated at residue 141
# B3: delta1-224: N-terminal extracellular domain of human muscle AChR delta subunit expressed in Pichia pastoris, FLAG epitope (protein)
# chain: DYKDDDDKLNEEERLIRHLFQEKGYNKELRPVAHKEESVDVALALTLSNLISLKEVEETLTTNVWIEHGWTDNRLKWNAEEFGNISVLRLPPDMVWLPEIVLENNNDGSFQISYSCNVLVYHYGFVYWLPPAIFRSSCPISVTYFPFDWQNCSLKFSSLKYTAKEITLSLKQDAKENRTYPVEWIIIDPEGFTENGEWEIVHRPARVNVDPRAPLDSPSRQDITFYLIIRRK
# modifications: glycosylated
# Legend:
# [1] = test system: anti-AChR antibodies from MG sera; experiment: Immunoadsorption of anti-AChR antibodies from MG sera by CNBr-Sepharose-immobilized subunit domains, RIA with human AChR from TE671 cells; type: binding; details: for percentage of anti-AChR antibodies eliminated, best-adsorbed sera: 13 of 64 (20%) MG sera, 2.5 ul serum
# Procedure: FIG. 6 illustrates the immunoadsorption of anti-AChR antibodies from MG sera using immobilized alpha1-210 (black bars), gamma1-218 (grey bars) and epsilon1-219 (blank bars). Each subunit has been expressed in the yeast Pichia pastoris and the purified proteins have been covalently immobilized on CNBr-Sepharose beads. 64 MG positive sera were assayed for binding to human AChR after incubation with alpha1-210 immobilized on CNBr-Sepharose (together with BSA) or with just BSA immobilized on the same insoluble matrix. 2.5 ul of each MG patient serum were incubated with 0.2 ug immobilized alpha1-210 mixed with BSA or the same amount of BSA at […] for 2-3h (in a total volume of 0.16 ml) followed by centrifugation. Samples of the supernatants, each containing an amount corresponding to 0.9 ul of the treated MG sera were subsequently used in a typical RIA MG diagnostic test (Lindstrom et al., Meth. Enzymol. 74, 432460, 1981) with human AChR from TE671 cells. The percentage of immunoadsorption was estimated as described in the Example 3. Samples were processed in duplicates. Results shown (black bars) are an average of two experiments. Sera are sorted in decreasing percentage of immunoadsorption to immobilized alpha1-210.
# FIG. 7 illustrates the immunoadsorption of anti-AChR antibodies from MG sera against immobilized alpha1-210 (black bars), gamma1-218 (gray bars) and a mix of both immobilized alpha1-210 and gamma1-218 (hatched bars). 9 MG sera were assayed for binding to human AChR after incubation of 20 fmoles anti-AChR MG antibodies with alpha1-210 (1 ug), or gamma1-218 (1 ug) or alpha1-210/gamma1-218 mix (containing 1 ug of each subunit) immobilized on CNBr-Sepharose. Incubation with just BSA immobilized to the same insoluble matrix served as a control to calculate the percent immunoadsorption against each of the subunits and the mix of both. After incubation with the Sepharose-immobilized proteins, sera were screened in a typical RIA experiment using TE671 AChR. The percentage of immunoadsorption was estimated as described in the Example 3. Samples were processed in duplicates. Results shown are an average of two experiments.
# Immunoadsorption of MG autoantibodies by immobilized alpha1-210. 0.1 mg alpha1-210 mixed with 1.4 mg BSA was covalently bound to 0.5 gr CNBr-Sepharose according to manufacturer's protocol (Amersham). BSA was simply added to increase the protein/Sepharose ratio because the ratio of recombinant protein to Sepharose beads used would otherwise be too small; BSA is not necessary for larger scale experiments. In parallel, 1.5 mg BSA was bound to the same amount of CNBr-Sepharose under the same conditions as control. 2.5 ul MG patient sera were incubated with 0.2 ug immobilized alpha1-210 mixed with BSA, or the same amount of immobilized BSA alone, at 4° C. for 2-3 h (in a total volume of 0.16 ml) followed by centrifugation for bead precipitation. Samples of the supernatants, each containing an amount corresponding to 0.9 ul of these treated MG sera were subsequently used in a typical RIA MG diagnostic test (Lindstrom et al., Meth. Enzymol. 74, 432460, 1981) with human AChR from TE671 cells. The percentage of immunoadsorption was estimated as the ratio between the reduction in immunoprecipitated radiolabeled human AChR after incubation with alpha1-210 and the immunoprecipitated radiolabeled human AChR without incubation with alpha1-210 (incubation with plain immobilized BSA). 64 MG positive sera were assayed for binding to human AChR after incubation with immobilized alpha1-210 or BSA. […] We also tested immunoadsorption of the same set of MG sera by incubating 0.2 ug immobilized alpha1-210 with a fixed amount of anti-AChR antibodies (20 fmoles in variable volumes of MG sera depending on their titer) rather than a fixed serum volume.
# Immunoadsorption of MG autoantibodies by immobilized gamma1-218 or epsilon1-219 domains. […]
# 125I-alpha-BTX [2] = type: binding
# Procedure: FIG. 2 illustrates the binding of alpha-BTX to alpha1-210 of FIG. 1. (A) Scatchard plot analysis of ^125I-alpha-BTX binding to alpha1-210 fragment. Culture supernatants containing alpha1-210 (40 microliters, 40 ul) were incubated with various concentrations of ^125I-alpha-BTX in 10 ul of PBS-0.2 % bovine serum albumin (BSA), then, after 3 hours incubation at 40° C., the samples were filtered through Whatman DE81 filters, and the bound radioactivity measured on a gamma counter (filter assay). Samples were processed in duplicates. […] (B) The specific binding of the ^125I-alpha-BTX to alpha1-210 fragment was studied in competition experiments involving the simultaneous addition of increasing concentrations of unlabeled toxin. Samples were processed in duplicates. Binding of labeled alpha-BTX in the absence of unlabeled alpha-BTX was taken as the 100% level. (C) Effect of deglycosylation on ^125I-alpha-BTX binding to alpha1-210. In vitro deglycosylation was performed using N-glycosidase F treatment. Aliquots at various reaction time-points were assayed for ^125I-alpha-BTX binding in filter assay experiments. Samples were processed in duplicates (dark columns, N-glycosidase F treatment; light columns, control treatment).
# To study the binding of alpha-BTX to alpha1-210 as an indication of correct protein folding, we tested both crude culture supernatants and the purified protein in “filter assay” experiments: Fifty nanograms of purified alpha1-210 or […] of culture supernatant was incubated at […] for 3 h with various concentrations of ^125I-alpha-BTX (specific activity 800,000 cpm/pmole) in a final volume of […] of PBS buffer, pH 7.5, 0.2% BSA. The samples were then diluted with 1 ml of 0.5% Triton X-100 in 20 mM Tris buffer, pH 7.5 (Triton buffer) and immediately filtered through two Whatman DE81 filters prewashed with Triton buffer. The filters were then washed twice with 1 ml of Triton buffer and the bound radioactivity measured on a gamma-counter. Samples without alpha1-210 were used to measure non-specific binding. Specific binding of alpha-BTX was also studied in competition experiments by addition of various amounts of unlabeled alpha-BTX to the sample.
# [3] = test system: anti-AChR autoantibodies from MG sera; experiment: Binding of MG patients' autoantibodies to 125I-alpha-BTX-labeled alpha1-210 and hybrid AChR (RIA); design: species or system human
# Procedure: 50 MG-positive sera were assayed for binding to alpha1-210 and to a hybrid AChR molecule (HaTbgd) containing human alpha subunit and Torpedo beta, gamma and delta subunits, labeled with ^125I-alpha-BTX. MG sera binding to ^125I-alpha-BTX-alpha1-210 were plotted versus binding to ^125I-alpha-BTX-HaTbgd in a logarithmic scale. […] Samples were processed in duplicates.
# 70 human sera were screened: 50 MG and 20 healthy controls (5 ul of human sera/sample).
# 125I-alpha-BTX [4] = experiment: 125I-alpha-BTX filter assay of alpha domain expressed in HEK293 cells (SFV vector); type: binding; details: expressed in HEK293 cells with recombinant SFV-1 vector
# Procedure: […] Approximately 2×10^6 transfected cells were allowed to express the protein of interest. Cells and medium supernatant were collected after two days. Cells were washed in cocktail buffer (1×PBS pH7.4 with PMSF. 1 mM, aprotinin 5units/ml, leupeptin 5 micrograms/ml, iodoacetamide 1 mM). The medium supernatant (12 ml) was concentrated […] to a final volume of 2.5 ml and dialysed against PBS buffer at 4° C. To extract the receptor, the cell pellet was resuspended in 0.5 ml of cocktail-2% Triton-X100 and the mixture was left at 4° C. with mild agitation. The mixture was subsequently centrifuged at 15000 g for 15 min and the supernatant was tested for ^125I-alpha-BTX binding. The filter assay technique (as described in Example 1) was used to test whether the expressed protein was secreted in the medium supernatant or retained within the cell (in either the cytoplasm or the membrane).
# Having established that the cloned product is functional, the recombinant SFV plasmid is linearized at SpeI site, purified and used in an in vitro mRNA synthesis using the mMESSAGE mMACHINE kit (Ambion Inc.) Approximately 20 micrograms of mRNA produced is obtained and used to electroporate 0.7 ml of 10^7 cells/ml HEK293 cells. We only use the recombinant SFV-1 vector without the helper plasmid at this stage. Both the cells and the supernatant are collected two days post-electroporation. […]
# alpha1-210 = experiment: Delta1-224 studied together with alpha1-210 in 125I-alpha-BTX binding experiments; design: species or system human
molecule,measurement,setting,value
B1,immunoadsorption with fixed amount of anti-AChR antibodies compared with fixed serum volume,"[1]; 0.2 ug immobilized protein, 20 fmoles antibodies in variable serum volumes",identical with the above immunoadsorption results
same,"percentage of anti-AChR antibodies eliminated, best-adsorbed sera",[1]; 0.2 ug immobilized protein,more than 60%
same,"percentage of anti-AChR antibodies eliminated, best-adsorbed sera","[1]; 0.2 ug immobilized protein, listed as immobilized alpha domain",more than 60%
same,average percentage of anti-AChR antibodies eliminated in all sera tested,[1]; all sera tested,37%
same,"percentage of immunoadsorption, intermediate sera",[1]; another 24 sera (37%) of 64,20-60%
same,immunoadsorption of serum no. 3,"[1]; serum no. 3, 1 ug of each immobilized subunit, 20 fmoles antibody",54%
same,amount of antibody eliminated by 1 ug immobilized protein,"[1]; titration experiments, 0.25 ml serum of titer 5 nM",≥ 1250 fmol
same,volume of MG serum from which 1 ug immobilized protein eliminates the anti-alpha antibodies,"[1]; titration experiments, MG serum of titer 5 nM",at least 0.25 ml
same,125I-alpha-BTX binding after deglycosylation,125I-alpha-BTX [2],practically totally lost; also recorded: markedly impaired
same,binding of 125I-alpha-BTX (in words),125I-alpha-BTX [2],high affinity
same,Kd,"125I-alpha-BTX [2]; read-out: average Kd of 125I-alpha-BTX binding, series of experiments",5.1 ± 2.4 nM
same,Kd,"125I-alpha-BTX [2]; read-out: estimated Kd of 125I-alpha-BTX binding, representative experiment",3.3 nM
same,proportion of MG sera with high anti-alpha titers that recognized the protein,[3],66%
B2,ability to bind 125I-alpha-BTX,125I-alpha-BTX [4],good ability to bind
B3,immunoadsorption of anti-AChR antibodies (in words),[1]; immobilized on Sepharose-CNBr,lower but very significant percentages; also recorded: large fractions
same,interaction between recombinant subunit domains,alpha1-210,temporary weak interaction
